Laboratory results as given in PMC2850574 (Biochemistry, 2010).
Ends that are not written are not given here.

What was measured:
[1] = target: SecAΔ11-Cys-190 (Escherichia coli, UniProt P10408, C885S/C887S/C896S/C98S/N190C); assay: Binding of SP22 to monomeric SecAΔ11-Cys-190 by FRET titration
[2] = target: SecA-Cys-256 (Escherichia coli, UniProt P10408, C885S/C887S/C896S/C98S/T256C); assay: Signal peptide binding to SecA-Cys-256 by fluorescence anisotropy
[3] = test system: SecA-Cys-190; assay: Specificity control: scrambled SP22 binding/FRET; design: species or system Escherichia coli; conditions: 7 μM IAEDANS-labeled SecA-Cys-190, 18 μM IANBD-labeled scrambled SP22; data not shown
[4] = target: IAEDANS-labeled SecAΔ11-Cys-190 (E. coli) (UniProt P10408)
[5] = target: IANBD-labeled alkaline phosphatase signal peptide SP22 (E. coli); assay: fluorescence polarisation
[6] = target: LamB signal peptide signal peptide (Escherichia coli) (UniProt P02943); conditions: cited from earlier work
[7] = target: T1, wild-type SecA (Escherichia coli SecA ATPase) (E. coli, UniProt P10408 9-836); assay: fluorescence polarisation
[8] = target: T1, wild-type SecA (Escherichia coli SecA …); assay: fluorescence polarisation; remark: listed apart in the source

MKQSTIALALLPLLFTPVTKAC-NH2 [SP22]
Kd [1]: 3.06 ± 1.13 µM | Kd [2]: 1100 ± 200 nM

PLMDTEITLKFLSPLQALKTVC-NH2 [scrambled SP22]
high-affinity binding and FRET [3]: neither high-affinity binding nor FRET was detected

IAEDANS-labeled SecAΔ11-Cys-190 (from UniProt P10408 9-836) (natural protein)
Kd [4]: 230 nM

SecA-Cys-256 (unlabeled) (from UniProt P10408 9-836) (natural protein)
Kd [5]: 1100 nM

SecA (from UniProt P10408)
Kd [6]: 100 µM

B1: IANBD-labeled alkaline phosphatase signal peptide SP22 (peptide)
chain: MKQSTIALALLPLLFTPVTKAC(IANBD)-NH2
Kd [7]: 1400 ± 200 nM | stoichiometry N [8]: 1 mole ratio of signal peptide to SecA
